Results: US12209122
Positions count from the first letter of the chain named. Numbers in names are those of the source.

B1: humanized single-chain diabody of clone 16-22-H05 (other)
chain: MDIQMTQSPSSLSASVGDRVTIKCQASQSIFSGLAWYQQKPGKAPKLLIYGASKLASGVPSRFSGSGSGTEFTLTISGLQPADFATYYCQSYYYSSSSSDGSYAFGGGTKLTVLGGGGGSEVQLVESGGGLVQPGGSLRLSCKASGIDFNNYGIGWVRQAPGKGLEWITYIYPGFAITNFANSVKGRFTISSDNSKNTVYLQMNSLRAEDTAVYYCARDPVYATSSGYFDLWGQGTLVTVSSGGGGSGGGGSGGGGSGGGGSDIQMTQSPSSLSASVGDRVTIKCQASQSIFSGLAWYQQKPGKAPKLLIYGASKLASGVPSRFSGSGSGTEFTLTISGLQPADFATYYCQSYYYSSSSSDGSYAFGGGTKLTVLGGGGGSEVQLVESGGGLVQPGGSLRLSCKASGIDFNNYGIGWVRQAPGKGLEWITYIYPGFAITNFANSVKGRFTISSDNSKNTVYLQMNSLRAEDTAVYYCARDPVYATSSGYFDLWGQGTLVTVSS
notes: Single-chain diabody VLA-L1-VHB-L2-VLB-L3-VHA, bivalent for TNFα; L1 and L3 are G4S, L2 is (G4S)4; also called 16-22-H5-scDb; scDb
B2: recombinant human TNFβ (Peprotech, Cat. No. 300-01B) (ligand, UniProt P01374 35-205, looked up)
chain: LPGVGLTPSAAQTARQHPKMHLAHSTLKPAAHLIGDPSKQNSLLWRANTDRAFLQDGFSLSNNSLLVPTSGIYFVYSQVVFSGKAYSPKATSSPLYLAHEVQLFSSQYPFHVPLLSSQKMVYPGLQEPWLHSMYHGAAFQLTQGDQLSTHTDGIPHLVLSPSTVFFGAFAL
B3: humanized IgG of clone 16-22-H05 (antibody, V domains shown)
VH: EVQLVESGGGLVQPGGSLRLSCKASGIDFNNYGIGWVRQAPGKGLEWITYIYPGFAITNFANSVKGRFTISSDNSKNTVYLQMNSLRAEDTAVYYCARDPVYATSSGYFDLWGQGTLVTVSS
VL: DIQMTQSPSSLSASVGDRVTIKCQASQSIFSGLAWYQQKPGKAPKLLIYGASKLASGVPSRFSGSGSGTEFTLTISGLQPADFATYYCQSYYYSSSSSDGSYAFGGGTKLTVLG
notes: Transiently expressed in CHO S cells and purified on Protein A; also called 16-22-H5-IgG
B4: humanized scFv 16-22-H05-sc02 (structural graft, STR) (scFv)
scFv: MDIQMTQSPSSLSASVGDRVTIKCQASQSIFSGLAWYQQKPGKAPKLLIYGASKLASGVPSRFSGSGSGTEFTLTISGLQPADFATYYCQSYYYSSSSSDGSYAFGGGTKLTVLGGGGGSGGGGSGGGGSGGGGSEVQLVESGGGLVQPGGSLRLSCKASGIDFNNYGIGWVRQAPGKGLEWITYIYPGFAITNFANSVKGRFTISSDNSKNTVYLQMNSLRAEDTAVYYCARDPVYATSSGYFDLWGQGTLVTVSS
notes: also called 16-22-H5-sc02; 16-22-H04-sc02 [sic]
B5: 16-22-H5-scFv (scFv format of Examples 3 to 7) (scFv)
chain: B4 scFv
B6: humanized scFv 16-22-H05-sc04 (CDR grafted light chain, structural grafted heavy chain, CDR/STR) (scFv)
scFv: B4 scFv with K23T
notes: also called 16-22-05-sc04

Experiments:
[1] = molecular target: T1, recombinant human TNFα (Peprotech, Cat. No. 300-01) (human, UniProt P01375 77-233); test: SPR as in Example 2 under 2.1.1
T1 construct: also called TNFαtrimer; biotinylated TNFα

[2] = molecular target: T1, recombinant human TNFα (Peprotech, Cat. …); test: cell-based or functional assay
[3] = molecular target: B6; test: competition ELISA, coated scFv, biotinylated TNFα, unlabeled TNFβ against unlabeled TNFα
Experimental: (§1) For this purpose, the scFvs were coated on a 96-well Maxisorp ELISA plate at a concentration of 1 μg/ml. […] To control precision of the response, the dose-response curves were analyzed in duplicate.

[4] = molecular target: B4; test: as above
Experimental: as §1

[5] = molecular target: B6; test: competition ELISA, coated scFv, biotinylated TNFα 75 ng/ml, unlabeled TNFβ varied
Experimental: as §1

[6] = molecular target: B4; test: as above
Experimental: as §1

[7] = molecular target: T2, Rhesus monkey TNFα (R&D Systems, Cat. No. 1070-RM-025/CF) (Rhesus monkey (Macaca mulatta), UniProt P48094 77-233); test: SPR (MASS-1), Rhesus TNFα immobilized, scFv 45 to 1.4 nM
T2 construct: also called Rhesus TNFα; rhesus TNF
Experimental: (§2) In a second step, for the best performing scFvs, Single Injection Cycle Kinetics (SiCK) were measured from a single injection cycle by simultaneously injecting six analyte samples at different concentrations into each of the eight parallel channels in the MASS-1 system. […] The apparent dissociation (k_d) and association (k_a) rate constants and the apparent dissociation equilibrium constant (K_D) were calculated with the MASS-1 analysis software (Analyzer, Sierra Sensors) using one-to-one Langmuir binding model and quality of the fits was monitored based on Chi^2, which is a measure for the quality of the curve fitting. The smaller the value for the Chi^2 the more accurate is the fitting to the one-to-one Langmuir binding model. For affinity screenings, results were deemed valid if the Chi^2 was below 10 for the concentration analyzed. In cases where several scFv concentrations were analyzed, results were deemed valid if the average Chi^2 over all the concentrations tested was below 10.

[8] = molecular target: T1, recombinant human TNFα (Peprotech, Cat. …); test: inhibition ELISA, blocking of TNFα binding to coated TNFRI-Fc; reference infliximab
Description: (§3) For the first inhibition ELISA, the extracellular domain of TNFRI fused to the Fc region of human IgG (R&D Systems, Cat. No. 372-RI) was coated on a 96-well Maxisorp ELISA at a concentration of […]. […] All subsequent steps were identical for both assays.

[9] = molecular target: T1, recombinant human TNFα (Peprotech, Cat. …); test: inhibition ELISA, blocking of TNFα binding to coated TNFRI-Fc
Description: as §3

[10] = molecular target: T3, recombinant Cynomolgus monkey TNFα (Sino Biological, Cat. No. 90018-CNAE) (Cynomolgus monkey (Macaca fascicularis), UniProt P79337 77-233); test: SPR, TNFα immobilized, scFv injected
T3 construct: also called Cynomolgus TNFα; cyno TNF
Experimental: as §2

[11] = molecular target: T2, Rhesus monkey TNFα (R&D Systems, Cat. …); test: SPR, TNFα immobilized, scFv injected
Experimental: as §2

[12] = molecular target: T3, recombinant Cynomolgus monkey TNFα …; test: cell-based or functional assay
[13] = molecular target: T2, Rhesus monkey TNFα (R&D Systems, Cat. …); test: cell-based or functional assay
[14] = molecular target: T1, recombinant human TNFα (Peprotech, Cat. …); test: cell-based or functional assay; remark: listed apart in the source
[15] = molecular target: T1, recombinant human TNFα (Peprotech, Cat. …); test: SPR (MASS-1), TNFα immobilized, scFv 45 to 1.4 nM
Experimental: In a second step, for the best performing scFvs, Single Injection Cycle Kinetics (SiCK) were measured from a single injection cycle by simultaneously injecting six analyte samples at different concentrations into each of the eight parallel channels in the MASS-1 system. […] The apparent dissociation (k_d) and association (k_a) rate constants and the apparent dissociation equilibrium constant (K_D) were calculated with the MASS-1 analysis software (Analyzer, Sierra Sensors) using one-to-one Langmuir binding model and quality of the fits was monitored based on Chi^2, which is a measure for the quality of the curve fitting.

[16] = molecular target: B2; test: competition ELISA, coated scFv, biotinylated TNFα, unlabeled TNFβ
Experimental: as §1

[17] = molecular target: T1, recombinant human TNFα (Peprotech, Cat. …); test: inhibition ELISA, blocking of TNFα binding to coated TNFRII-Fc; reference infliximab
[18] = molecular target: T1, recombinant human TNFα (Peprotech, Cat. …); test: inhibition ELISA, blocking of TNFα binding to coated TNFRII-Fc
Description: as §3

[19] = molecular target: T3, recombinant Cynomolgus monkey TNFα …; test: SPR (MASS-1), cyno TNFα immobilized, scFv 45 to 1.4 nM
Experimental: as §2

T1 sequence (P01375 77-233 limits assumed): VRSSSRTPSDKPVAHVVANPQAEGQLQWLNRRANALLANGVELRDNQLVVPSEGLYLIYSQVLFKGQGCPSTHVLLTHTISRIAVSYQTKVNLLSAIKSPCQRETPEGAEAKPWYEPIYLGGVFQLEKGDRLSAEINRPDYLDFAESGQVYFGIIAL
T3 sequence (P79337 77-233 limits assumed): as the sequence (P01375 77-233 limits assumed) above, with L37V, R44T, T72N, R138L counted along it
T2 sequence (P48094 77-233 limits assumed): as the sequence (P01375 77-233 limits assumed) above, with R44T, T72N, R138L counted along it

Binder | Kd [1] | koff [1] | kon [1] | Potency IC50 (nM), L929 assay [2] | rel. IC50 (IC50 infliximab / IC50 scFv, ng/mL) [8] | rel. IC90 (IC90 infliximab / IC90 scFv, ng/mL) [8] | IC50 [9] | Species-specificity IC50 [ng/ml], L929 assay, cyno TNFα [12] | Species-specificity IC50 [ng/ml], L929 assay, Rhesus TNFα [13] | Potency in L929 assay, rel. IC50 (IC50 infliximab / IC50 scFv, ng/ml) [14] | Potency in L929 assay, rel. IC90 (IC90 infliximab / IC90 scFv, ng/ml) [14] | Species-specificity IC50 [ng/ml], L929 assay, human TNFα [14] | Kd [15] | koff [15] | kon [15] | binding result [16] | rel. IC50 (IC50 infliximab / IC50 scFv, ng/mL) [17] | rel. IC90 (IC90 infliximab / IC90 scFv, ng/mL) [17] | IC50 [18] | also measured
B1 | 21.5 pM | 2.02e-05 s⁻¹ | 940000 M⁻¹ s⁻¹ | 0.01 nM | – | – | – | – | – | – | – | – | – | – | – | – | – | – | – | –
B2 | – | – | – | – | – | – | – | – | – | – | – | – | – | – | – | – | – | – | – | Target selectivity, rel. IC50 of TNFβ vs TNFα [3]: > 10000 fold; Target selectivity, rel. IC50 of TNFβ vs TNFα [4]: > 10000 fold; IC50 [5]: > 1250 µg/mL; IC50 [6]: > 1250 µg/mL
B3 | 41.7 pM | 7.92e-05 s⁻¹ | 1.9e+06 M⁻¹ s⁻¹ | 0.02 nM | – | – | – | – | – | – | – | – | – | – | – | – | – | – | – | –
B4 | – | – | – | – | 3.5 fold | 2.4 fold | 0.0139 µg/mL | 2.9 ng/mL | 3 ng/mL | 13.1 fold | 12.6 fold | 0.6 ng/mL | 45 pM | 4.3e-05 s⁻¹ | 960000 M⁻¹ s⁻¹ | no binding (tested: 1250 µg/ml) | 5.7 fold | 3.3 fold | 0.02 µg/mL | Kd [7]: 230 pM; koff [7]: 0.00015 s⁻¹; kon [7]: 670000 M⁻¹ s⁻¹; fold difference in affinity against human TNFα [10]: ~5 fold; fold difference in affinity against human TNFα [11]: ~5 fold; Kd [19]: 200 pM; koff [19]: 9.6e-05 s⁻¹; kon [19]: 490000 M⁻¹ s⁻¹
B5 | 37.9 pM | 3.38e-05 s⁻¹ | 893000 M⁻¹ s⁻¹ | 0.03 nM | – | – | – | – | – | – | – | – | – | – | – | – | – | – | – | –
B6 | – | – | – | – | 2.8 fold | 2.1 fold | 0.0177 µg/mL | 3.5 ng/mL | 2.9 ng/mL | 14.6 fold | 13.1 fold | 0.5 ng/mL | 110 pM | 7.1e-05 s⁻¹ | 680000 M⁻¹ s⁻¹ | no binding (tested: 1250 µg/ml) | 3.5 fold | 1.5 fold | 0.0326 µg/mL | –
